Paper PMC3020915
Several values for one entry are separate records, joined by “and”; a condition that tells them apart may be missing. Equal entries are not always repeated.

B1: MBP-NtΔBD (mDia2 91-528) (domain or fragment)
chain: NNPKALPESEVLKLFEKMMEDMNLNEDKKAPLREKDFGIKKEMVMQYINTASKTGSLRSSRQISPQEFLHELKMGYTDERLFTYLESLRVSLTSHPVSWVQSFGHEGLGLLLDILEKLINGQIQEKVVKKTQHKVIQCLRALMNTQYGLERIMSDKRSLSLLAKAMDPRQPAMMADVVKLLSAVCIVGEESILEEVLEALTSAGEERKIDRFFSIVEGLRHNSVNLQVACMQLINALVTSPDDLDFRLHLRNEFMRCGLKEILPNLKGIKNDGLDIQLKVFDEHKEEDLSEFFHRLEDIRAELDEASDVYSMLWDTVKETRAEGHFLSILQHLLLIRNDRFIREQYFKLIDECVSQIVLHRDGTDPDFTYRKRLDLDLSQFVDVCIDQAKLDEWEEKASEHCKKFEKECTDHQETQAQLQKREAKINELQAELQAFKS
B2: MBP-Nt (mDia2 N-terminus, 1-528) (domain or fragment)
chain: MERHRARALGRDSKSSRRKGLQSAPPAGPYEPGEKRPKLHLNIRTLTDDMLDKFASIRIPGSKKERPPLPHLKTVSGISDSSSLSSETMENNPKALPESEVLKLFEKMMEDMNLNEDKKAPLREKDFGIKKEMVMQYINTASKTGSLRSSRQISPQEFLHELKMGYTDERLFTYLESLRVSLTSHPVSWVQSFGHEGLGLLLDILEKLINGQIQEKVVKKTQHKVIQCLRALMNTQYGLERIMSDKRSLSLLAKAMDPRQPAMMADVVKLLSAVCIVGEESILEEVLEALTSAGEERKIDRFFSIVEGLRHNSVNLQVACMQLINALVTSPDDLDFRLHLRNEFMRCGLKEILPNLKGIKNDGLDIQLKVFDEHKEEDLSEFFHRLEDIRAELDEASDVYSMLWDTVKETRAEGHFLSILQHLLLIRNDRFIREQYFKLIDECVSQIVLHRDGTDPDFTYRKRLDLDLSQFVDVCIDQAKLDEWEEKASEHCKKFEKECTDHQETQAQLQKREAKINELQAELQAFKS

Target: GST-Rif Q75L (UniProt Q9HBH0)
Test: pull-down

| Binder | fold increase of band intensity over the GST control |
| --- | --- |
| B1 | 6 fold and 9.2 fold |
| B2 | 2.4 fold and 3.8 fold |
